The values below come from PMC4447274, “Gene Regulation by the LiaSR Two-Component System in Streptococcus mutans” (PLoS ONE, 2015).

The target of series [1] is T1, His-LiaR (Streptococcus mutans UA159) (UniProt Q8DVJ8).
T1 sequence: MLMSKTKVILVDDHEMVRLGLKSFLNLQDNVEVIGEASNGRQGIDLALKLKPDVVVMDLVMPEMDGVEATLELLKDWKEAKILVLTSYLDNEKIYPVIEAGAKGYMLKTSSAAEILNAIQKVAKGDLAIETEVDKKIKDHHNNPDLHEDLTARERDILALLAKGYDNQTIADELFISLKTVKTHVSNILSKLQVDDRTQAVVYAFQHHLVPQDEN
The series can be described thus: EMSA. As to conditions: 20 mM Tris-Cl pH 7.5, 100 mM NaCl, 0.01 mM DTT, 5% glycerol, 1 mM EDTA, 0.01 mg/ml BSA, 5 mM MgCl2, 10 ug/ml poly(dI-dC), 30 min (EMSA); BLI in binding buffer …. In general terms: A gel shift assay detects complexes by their altered migration in electrophoresis.

Series [2] addresses T2, LiaR (Streptococcus mutans, UniProt Q8DVJ8).
T2 construct: gene SMU_487; ORF from start codon, N-terminal His tag, E. coli BL21, Ni-NTA (pASK-IBA43+, pIBE11)
The series can be described thus: Phos-Tag SDS-PAGE mobility shift (phosphorylation of LiaR). The conditions noted are these: 20 mM MnCl2, 50 mM Tris-Cl, 50 mM KCl, 1 mM DTT, pH 7.5, 37 °C, 1 h, phosphodonor, covalent phosphorylation. The format is biochemical.

For series [3], the target named is T1, His-LiaR (Streptococcus mutans UA159). The series can be described thus: competition. As to conditions: 20 mM Tris-Cl pH 7.5, 100 mM NaCl, 0.01 mM DTT, 5% glycerol, 1 mM EDTA, 0.01 mg/ml BSA, 5 mM MgCl2, 10 ug/ml poly(dI-dC), 30 min (EMSA); BLI in binding buffer ….
In series [4] the target is T3, His-LiaR-D58A D58A (Streptococcus mutans UA159) (UniProt Q8DVJ8).
T3 sequence: T1 sequence with D58A
The series can be described thus: EMSA. As to conditions: 20 mM Tris-Cl pH 7.5, 100 mM NaCl, 0.01 mM DTT, 5% glycerol, 1 mM EDTA, 0.01 mg/ml BSA, 5 mM MgCl2, 10 ug/ml poly(dI-dC), 30 min (EMSA); BLI in binding buffer ….

Series [5] has as its target T4, His-LiaR (Streptococcus mutans UA159, UniProt Q8DVJ8 1-215). The series can be described thus: BLI; 1 uM LiaR; Req reduced 3-fold; 20 mM Tris-Cl pH 7.5, 100 mM NaCl, 0.01 mM DTT, 5% glycerol, 1 mM EDTA, 0.01 mg/ml BSA, 5 mM MgCl2, 10 ug/ml poly(dI-dC), 30 min (EMSA); BLI in binding buffer. As to conditions: protein: recombinant; tags: N-terminal His; chain copies: 2; label: 32P end label (EMSA); 3' biotin on one strand (BLI). For orientation: BLI is a label-free optical method that tracks binding on a fibre tip over time.

Series [6] deals with T4, His-LiaR. The series can be described thus: BLI; 1 uM LiaR; 20 mM Tris-Cl pH 7.5, 100 mM NaCl, 0.01 mM DTT, 5% glycerol, 1 mM EDTA, 0.01 mg/ml BSA, 5 mM MgCl2, 10 ug/ml poly(dI-dC), 30 min (EMSA); BLI in binding buffer. The conditions noted are these: protein: recombinant; tags: N-terminal His; chain copies: 2; label: 32P end label (EMSA); 3' biotin on one strand (BLI).
Series [7] concerns the target T4, His-LiaR. The series can be described thus: EMSA; 15-30 pmol LiaR; 20 mM Tris-Cl pH 7.5, 100 mM NaCl, 0.01 mM DTT, 5% glycerol, 1 mM EDTA, 0.01 mg/ml BSA, 5 mM MgCl2, 10 ug/ml poly(dI-dC), 30 min (EMSA); BLI in binding buffer. The conditions noted are these: protein: recombinant; tags: N-terminal His; chain copies: 2; label: 32P end label.

Substitutions are numbered along the chain they refer to. Names may count otherwise.

With “CCTAAGTCCACCTCCCATCTTTAATCAATAGAGTTAGCACTCTTAACAGACGACTGCTAACTTCATAATTCCATTATACTCCATTCCTAATTTCTGTCAAGAGAAAAATACAAAAAATTAGCACTCTTTCTGCTTGAGTGCTAAAAATCCGACTTAAGACTTAGTTTTATTGCTGT (double strand) [PhrcA]”, the binding entry in series [1] is “binds”.

Turning to “CTTGTTTGAAGAGATAACTTTTTTGTTATCAAACTTGTATCCGTCTAGGATTAAGACTGTATAAGATTGATGTATGATAACTAAGCTATGGCGTCTTTGATATTTGAAAAATTCTCTTTATCTTTAGTGTTATTTGGTCTAGATCAAGAGGTGAAATTTATCCTAAATTTTGATACAATGACTAATAATTGTAGAACTGAAGGAAGCCTTATG (double strand) [Alternative PSMU.485]”, the binding entry in series [1] is “no binding”.

For the molecule `CC(=O)OP(=O)(O)O` [Ac-Po4, acetyl phosphate], the “Phos-Tag SDS-PAGE mobility shift (phosphorylation of LiaR)” value in series [2] (50 mM acetyl phosphate) is “The wild-type protein readily acquired phosphate from both acetyl phosphate and phosphoamidate”.

Turning to “TTAATTGAGGAAGATAATACTGAAGAAAAACAGTCTTCTAAAGAAAAAGAAACTGATGAGAAAGCTGACAAAAACCTTGTTTTAGAGCTGGATGATACAATTGAGCTTGAAGATTAAATAAAAATAGGTCCCAAGACCGACTCTTTATTTAATAAGCTATGCTAAGATAATATTATCCTGTAAGGAAAGAGAGATTTAAAC (double strand) [PSMU.2084]”, the binding entry was “binds” in series [3], “no binding” in series [4] and “binds” in series [1].

“ATTACCAATGTGAATCGTGTGGTCAAGTTTATCAAAGAAAAAGACGAATGAATACGAAAAAATACGCTTGTGGCAACTGCCATGGAAAATTAAGACATCAAAATCAGTCGTAAGGCTGATTTTATTCTTCTCTAAATAGTTTATACTAATAGCATCATGAGATTTGTGATTCATTTTTTAAAAAAGGGAGAGTTGTTTGT (double strand) [PSMU.753]”: the binding entry in series [1] is recorded as “binds”.

For “AGCTTAGTTATCATACATCAATCTTATACAGTCTTAATCCTAGACGGATACAAGTTTGATAACAAAAAAGTTATCTCTTCAAACAAGGAGGCTGAGGCAAGAACCTTAAACTTATAAATATAATAACTACAACATATGAGTATACCTGCATTAGATAACATTATTATCAACAGATCATAAACATAACTTGAATTGACATG (double strand) [PSMU.485 (Plia)]”, the binding result in series [1] is reported as “no binding”.

On to `NP(=O)(O)O` [PA, phosphoamidate], for which the “Phos-Tag SDS-PAGE mobility shift (phosphorylation of LiaR)” value in series [2] (20 mM phosphoamidate) is “The wild-type protein readily acquired phosphate from both acetyl phosphate and phosphoamidate”.

On to “GTTTATTCAAGAAATTCGCAAAGGTCCATCTCCTTTTTCTAAAGTCACTTATGTTGACGTCAATATAGCAAATTTTTCTGATTACCATGATTTCAGAATGGCCAATTAATTTATCTCAAAATCATTCTCAAGAACTATTGAGTATTTTACTAAAAAACAGTAAAATAGATAGGTATTATTAAAATCAAAGGAAGATTATC (double strand) [PSMU.1727]”, for which, in series [1], the binding entry is recorded as “binds”.

B1: C13A/A17G consensus (dsDNA)
DNA 1: ATCAAAATCAGTATCAGGACCGATT
DNA 2: AATCGGTCCTGATACTGATTTTGAT
Take B1: the binding signal in series [5] is ~4 fold reduction of Rmax vs consensus.

B2: A23G/T25C consensus (dsDNA)
DNA 1: ATCAAAATCAGTCTCAAGACCGGTC
DNA 2: GACCGGTCTTGAGACTGATTTTGAT
B2: the binding signal in series [6] was ~1.5 fold reduction of Rmax and Req vs consensus.

B3: IR only (16-bp) (dsDNA)
DNA 1: TCAGTCTCAAGACCGATT
DNA 2: AATCGGTCTTGAGACTGA
For the molecule B3, the binding result in series [7] is on record as “no binding”.
